In US20190160102A1:

Molecular target: CD33 on MV-4-11 human AML cells (human) (UniProt P20138)
Experiment: flow cytometry, cell-cell binding: HA-positive erythroid cells within the CFSE-positive MV4-11 population (negative control)

Chain of UniProt P20138 (P20138 18-364 limits assumed): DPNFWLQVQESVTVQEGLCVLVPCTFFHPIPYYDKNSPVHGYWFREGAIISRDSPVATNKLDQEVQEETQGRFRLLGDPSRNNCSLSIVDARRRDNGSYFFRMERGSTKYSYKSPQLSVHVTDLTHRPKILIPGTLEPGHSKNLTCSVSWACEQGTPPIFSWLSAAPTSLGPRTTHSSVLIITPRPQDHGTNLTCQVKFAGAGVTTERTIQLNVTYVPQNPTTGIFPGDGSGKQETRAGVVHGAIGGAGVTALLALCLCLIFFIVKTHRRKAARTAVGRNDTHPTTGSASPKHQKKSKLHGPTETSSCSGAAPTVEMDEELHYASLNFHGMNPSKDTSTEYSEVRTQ

## HA-GPA (HA tag-Glycophorin A) expressed on erythroid cells, negative control
  percent of erythroid cells positive for binding to MV4-11: 10.7%
